How the values were obtained:
[1] = molecular target: PKA (protein kinase A) catalytic unit, Promega; experiment: cell-based or functional assay
[2] = tested on: T1, Lissamine rhodamine-labeled peptide substrate (Dye-RPKPVE-Norvaline-WRKpSA)
T1 sequence: RPKPVEXWRKSA

[3] = molecular target: T2, Lissamine rhodamine-labeled peptide substrate (Dye-QQQEVYGMMPRDpSA)
T2 chain: QQQEVYGMMPRDSA

Molecule: PKI, a known synthetic peptide inhibitor of PKA
- IC50 of inhibition of PKA activity (phosphorylation of Lissamine Rhodamine-labeled Kemptide, Fe(III) fluorescence quench assay) [1]: 2.6 nM

Molecule: Recombinant MMP-3 catalytic subunit (Matrix Metalloproteinase 3), Calbiochem
- Km (protease assay, fluorescence quench) [2]: Km was 1.44±0.15 µM

B1: Calpain 1 from human erythrocytes, Calbiochem (protein)
chain 1: SEEIITPVYCTGVSAQVQKQRARELGLGRHENAIKYLGQDYEQLRVRCLQSGTLFRDEAFPPVPQSLGYKDLGPNSSKTYGIKWKRPTELLSNPQFIVDGATRTDICQGALGDCWLLAAIASLTLNDTLLHRVVPHGQSFQNGYAGIFHFQLWQFGEWVDVVVDDLLPIKDGKLVFVHSAEGNEFWSALLEKAYAKVNGSYEALSGGSTSEGFEDFTGGVTEWYELRKAPSDLYQIILKALERGSLLGCSIDISSVLDMEAITFKKLVKGHAYSVTGAKQVNYRGQVVSLIRMRNPWGEVEWTGAWSDSSSEWNNVDPYERDQLRVKMEDGEFWMSFRDFMREFTRLEICNLTPDALKSRTIRKWNTTLYEGTWRRGSTAGGCRNYPATFWVNPQFKIRLDETDDPDDYGDRESGCSFVLALMQKHRRRERRFGRDMETIGFAVYEVPPELVGQPAVHLKRDFFLANASRARSEQFINLREVSTRFRLPPGEYVVVPSTFEPNKEGDFVLRFFSEKSAGTVELDDQIQANLPDEQVLSEEEIDENFKALFRQLAGEDMEISVKELRTILNRIISKHKDLRTKGFSLESCRSMVNLMDRDGNGKLGLVEFNILWNRIRNYLSIFRKFDLDKSGSMSAYEMRMAIESAGFKLNKKLYELIITRYSEPDLAVDFDNFVCCLVRLETMFRFFKTLDTDLDGVVTFDLFKWLQLTMFA
chain 2: MFLVNSFLKGGGGGGGGGGGLGGGLGNVLGGLISGAGGGGGGGGGGGGGGGGGGGGTAMRILGGVISAISEAAAQYNPEPPPPRTHYSNIEANESEEVRQFRRLFAQLAGDDMEVSATELMNILNKVVTRHPDLKTDGFGIDTCRSMVAVMDSDTTGKLGFEEFKYLWNNIKRWQAIYKQFDTDRSGTICSSELPGAFEAAGFHLNEHLYNMIIRRYSDESGNMDFDNFISCLVRLDAMFRAFKSLDKDGTGQIQVNIQEWLQLTMYS
- Km (protease assay, fluorescence quench) [3]: Km was 0.17±0.01 µM

Reference: US20050106655A1
